# Article PMC9728973
# Key:
# [1] = target: prefusion stabilized SARS-CoV-2 S-protein trimer (SARS-CoV-2) (UniProt P0DTC2); assay: ELISA
# [2] = target: wild-type (WT) SARS-CoV-2 S-protein trimer (SARS-CoV-2) (UniProt P0DTC2); assay: ELISA
# [3] = target: wild-type (WT) SARS-CoV-2 S-protein trimer (SARS-CoV-2) (UniProt P0DTC2)
# [4] = target: Fc-Li-PD (human) (UniProt Q9BYF1); assay: BLI
# [5] = target: PD-CLD-Fc (human) (UniProt Q9BYF1); assay: BLI
# [6] = target: PD-Fc (human) (UniProt Q9BYF1); assay: BLI
# [7] = target: PD-Li-Fc (human) (UniProt Q9BYF1); assay: BLI
substance,measurement,setting,value
PD-CLD-Fc (from UniProt Q9BYF1 18-740) (Fc fusion),IC50,[1],0.01 µM
same,IC50,[2],0.0001 µM
PD-Fc (from UniProt Q9BYF1 18-615) (Fc fusion),IC50 of neutralisation: infection of ACE2-transduced HEK293T cells by SARS-CoV-2 pseudotyped VSV particles (luciferase); S protein on the pseudovirus with cell-surface ACE2,[3],0.012 µM
PD-Li-Fc (from UniProt Q9BYF1 18-615) (Fc fusion),IC50 of neutralisation: infection of ACE2-transduced HEK293T cells by SARS-CoV-2 pseudotyped VSV particles (luciferase); S protein on the pseudovirus with cell-surface ACE2,[3],0.012 µM
S1 monomer (BLI of Fig. 3B) (domain or fragment),Kd,[4],0.045 µM
same,Kd,[5],0.011 µM
same,ratio of the KD for S1 monomer to the KD for S-protein trimer,[6],3 fold
same,ratio of the KD for S1 monomer to the KD for S-protein trimer,[7],3 fold
